Measured values reported in the supplement of paper PMC7125110.
± gives the standard error. This sample holds only a part of the variants without activity.

B1: glmS ribozyme (parent)
chain: AUAAAAGCGCCAGAACUACAGAAAUGUAGUUGACGAGGAGGAGGUUUAUCGAAUUUUCGGCGGAUGCCUCCAAA

Variants of: B1
Experiment: self-cleavage kobs at 10000 uM GlcN6P; higher = faster cleavage; RNA array
Details: with glucosamine-6-phosphate
Procedure, shortened: (§1)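 Tiles of sequenced MiSeq chips were imaged over ~14 h at 37 °C. On them, barcoded ribozyme variants had been transcribed in situ by E. coli RNA polymerase and were tracked via a hybridised Cy3 probe while glucosamine-6-phosphate (40 μM to 10 mM) in HEPES/KCl/Mg(OAc)2 buffer flowed in. Per-tile medians, normalised to baseline and to non-cleaving reference variants, were fit to one- or two-exponential decays for kobs, and weighted Michaelis–Menten fits gave kcat and KM.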

Row | Variant | self-cleavage kobs at 10000 uM GlcN6P [s⁻¹]
1 | C11A G13U A53G C67U C68G | 3.78e-05 ± 1.7e-05
2 | A36G A53C C67A | < 1e-05
3 | C19G G37A | 0.00215 ± 0.00044
4 | C11G G29U C34A A36U G37U G44C C68U | < 1e-05
5 | A42G C58G G66A | 5.14e-05 ± 1.9e-05
6 | A33G U46G C70U | < 1e-05
7 | A14C G35C G38U C61U G63U U65A C71G | < 1e-05
8 | U30C G40A U56A G62C | < 1e-05
9 | A12G A36C C67G | < 1e-05
10 | G32C G35C U49C C68A | < 1e-05
11 | C11G G29A G41U C50G U56G C67U | < 1e-05
12 | G13A G38U | < 1e-05
13 | A39U A52G C67G | 0.00016 ± 3.6e-05
14 | C8G G43U G51U U54G | < 1e-05
15 | G59C A64U C71G | < 1e-05
16 | G13C U56G A64G C67A | 3.32e-05 ± 1.4e-05
17 | C8U U31C A52U | < 1e-05
18 | C11G G38A A48C G60C G62C C68U | < 1e-05
19 | C10U A42G | 3.17e-05 ± 7.6e-06
20 | A42G U46A A64G | 0.00462 ± 0.0009
21 | G38A A42G U49A | < 1e-05
22 | A14U A42G U47C | 0.000229 ± 8.1e-05
23 | A33G A48C | < 1e-05
24 | C8A A48U G66U | < 1e-05
25 | G32U U55A C58G | 0.000755 ± 0.00011
26 | A5U A39C U65G C68U | 4.87e-05 ± 1.6e-05

Row | Variant | self-cleavage kobs at 10000 uM GlcN6P [s⁻¹]
27 | A14U G44U U45G U46G | 4.76e-05 ± 1.9e-05
28 | A12U G43U U46A | 4.1e-05 ± 1.8e-05
29 | C16A U31G C67U | 6.54e-05 ± 1.4e-05
30 | G13U A39G G63C | < 1e-05
31 | A6U C11A A39G | < 1e-05
32 | G7U A12G G35A A39G U49A C67A | < 1e-05
33 | C10U U55C G62U | < 1e-05
34 | C8G C61G C70A | < 1e-05
35 | U57G G62C | < 1e-05
36 | G51C U54G C70A | < 1e-05
37 | C50U C61U C67U | < 1e-05
38 | U31A U47G A48G | 3.62e-05 ± 1.3e-05
39 | C8U G37C G43A C58A | < 1e-05
40 | G59C G66A | < 1e-05
41 | A53C U55G C67U | 0.00164 ± 0.00038
42 | U49G G60A C61G G62U | < 1e-05
43 | C8A U45A A52G C61G C67U | < 1e-05
44 | U45A U56A | 0.0179 ± 0.0079
45 | A33C A52G U54A | < 1e-05
46 | A6C C50G A64U | 3.95e-05 ± 2e-05
47 | C16G C67A C70U | 9.5e-05 ± 2.1e-05
48 | A33C C50A C67G C68G | 7.88e-05 ± 2.1e-05
49 | A12U A14G U57A | 0.000643 ± 0.00011
50 | A12U G44U A52G | 4.49e-05 ± 1.9e-05
51 | C16U C34U G44A | < 1e-05
52 | C58U G59A | < 1e-05

Row | Variant | self-cleavage kobs at 10000 uM GlcN6P [s⁻¹]
53 | A12G A14C A15G | 0.000141 ± 3e-05
54 | A12G A42G A52G | 2.4e-05 ± 1.2e-05
55 | U30C A36U G44U C67G | < 1e-05
56 | A14G C34G G44U A52C C58A G59A G63U C71G | < 1e-05
57 | G9U G13A U55G | < 1e-05
58 | A14U A53U C68G | 5.14e-05 ± 1.1e-05
59 | A14G G29A U30C A39G | 4.63e-05 ± 1.6e-05
60 | G13A A42G | 0.000882 ± 0.00023
61 | U31G A53G U69C | 0.00324 ± 0.00093
62 | A33U U47A | 9.99e-05 ± 1.7e-05
63 | A48G C58U A64U | < 1e-05
64 | G7A U30G G41A C70A | < 1e-05
65 | G32A U45G U47A | 0.000614 ± 0.00014
66 | C11A C16G C58U C68A | 0.000263 ± 8.9e-05
67 | U31A A39C U56G | 0.00147 ± 0.0004
68 | A12C A42C G59C | < 1e-05
69 | U31A A33G C67A | < 1e-05
70 | A5U C8G G9U U30C | < 1e-05
71 | G7U G32U G59C G62U U65G | < 1e-05
72 | U30G G37C U45A A52G | < 1e-05
73 | G44U U65A | 5.28e-05 ± 1.3e-05
74 | G7U G29U G32A A42U U55C G62C | < 1e-05
75 | U30C G38A G63C U69C | < 1e-05
76 | G40A G51U C68U | < 1e-05
77 | A52C C68U C70U | 3.87e-05 ± 1.7e-05
78 | A39C U49A C61U C70G | < 1e-05

Row | Variant | self-cleavage kobs at 10000 uM GlcN6P [s⁻¹]
79 | C8A U65G | < 1e-05
80 | G43A U57C G59U A64U | < 1e-05
81 | A14U G40A U54A | 0.000245 ± 8.4e-05
82 | G29A U65G | 0.00113 ± 0.00027
83 | A15G C16U U47C U65A U69C | 6.04e-05 ± 2.9e-05
84 | C16A G29U U45G | 0.0036 ± 0.00061
85 | C16G U45C C67G | 0.000811 ± 0.00018
86 | U45G G59U | 4.05e-05 ± 1.2e-05
87 | U45G G59A | 7.24e-05 ± 1.4e-05
88 | U30C G66A C71U | 0.000123 ± 2.3e-05
89 | G38U A39C G44A | < 1e-05
90 | A14U A15C C68U | 6.11e-05 ± 2e-05
91 | A15G A53U U69G | 5.88e-05 ± 1.8e-05
92 | G13C A42G U65C | < 1e-05
93 | G44U C58U G62U C68A | < 1e-05
94 | U31A G32A A42G | 0.000766 ± 0.00025
95 | C8G C34U G43U G62U C71U | < 1e-05
96 | C8G C10U U54G | < 1e-05
97 | A6G A12G G40U U47C | < 1e-05
98 | A15C A42G U47G A53G | 0.000696 ± 9.1e-05
99 | A53G U57G C67G C68A | < 1e-05
100 | A36C G41U C50G G60U C61G | < 1e-05
101 | U31C G41A G66A | 0.00018 ± 2.8e-05
102 | A6U G7U C8U G32A G51U | < 1e-05
103 | A12G U46G A53U | 9.96e-05 ± 1.8e-05
104 | C16U G62C | < 1e-05

Row | Variant | self-cleavage kobs at 10000 uM GlcN6P [s⁻¹]
105 | A6U G9A G29C C50U U69G | 9.44e-05 ± 3.8e-05
106 | U31G A36U G40C U56G G66A | < 1e-05
107 | U45G U57G | 3.68e-05 ± 9e-06
108 | G9U A12G C16A | < 1e-05
109 | C8G C58U C61U | < 1e-05
110 | U65G G66U C70A | 6.2e-05 ± 1.7e-05
111 | A6G G35C U46C | < 1e-05
112 | A6C U30G G35U | < 1e-05
113 | G7U A42U C67G | < 1e-05
114 | A33G G37C C50G C68A | 0.00162 ± 0.00046
115 | C11A A12C U31C U49A | < 1e-05
116 | G35C G43C | < 1e-05
117 | A39G U49G | 0.000904 ± 0.00021
118 | A39G G43U G44U C67G | 5.34e-05 ± 1.9e-05
119 | U56G G60C | < 1e-05
120 | C11U C34A G43C | < 1e-05
121 | A12U G29C U46A | 0.000658 ± 0.00018
122 | C8A G13A U46A | < 1e-05
123 | G38U C50G C71A | 9.8e-05 ± 1.9e-05
124 | G38C C50A | < 1e-05
125 | G37A A39G U54G U55A | 0.00276 ± 0.00061
126 | C11U C34G G51A A52U C68G | 0.000563 ± 0.00022
127 | C8A G35C A53U | < 1e-05
128 | C58A G60C | < 1e-05
129 | G9U G41U A42G A52U A64U C68U | < 1e-05
130 | G7A G29C G32U U57C C58A | < 1e-05

Row | Variant | self-cleavage kobs at 10000 uM GlcN6P [s⁻¹]
131 | A12U A42U C70U | 0.00014 ± 3.1e-05
132 | A6G U54A U56A | 0.000141 ± 2.8e-05
133 | G32A A42G A53G | 0.00295 ± 0.00072
134 | G9A A15U G29U C68G | < 1e-05
135 | C8G A12C A33C | < 1e-05
136 | A36G G37C A42C A48C U65G | < 1e-05
137 | C8G C34A G66C | < 1e-05
138 | A14G G37C U45A U49C G59U | < 1e-05
139 | G7A A64G | 4.09e-05 ± 9.6e-06
140 | A39U C67A C70U | 0.00654 ± 0.0014
141 | A12C U31C G43U G44U | < 1e-05
142 | A14C U30A U47G C70U | 8.66e-05 ± 1.4e-05
143 | A52U U55G A64U | < 1e-05
144 | C16G C50A U56C U69G | < 1e-05
145 | G9A A12U C70G | < 1e-05
146 | G7A A42U | < 1e-05
147 | A33U G40C U56A G60C C71U | < 1e-05
148 | G29U G60A C61A | < 1e-05
149 | U30G U47C U54C C67U | 5.7e-05 ± 2.2e-05
150 | A6U A39U U54A G60U | < 1e-05
151 | C8A G38A G40C U57C | < 1e-05
152 | A6C G43A G59C C70U | < 1e-05
153 | C11A U30A C70G | 5.91e-05 ± 1.5e-05
154 | U55C U57A | 0.00024 ± 4.6e-05
155 | G37U G44U G60U | < 1e-05

Variants of: B1
Experiment: self-cleavage kobs at 2500 uM GlcN6P; higher = faster cleavage; RNA array
Details: with glucosamine-6-phosphate
Procedure, shortened: as §1

Row | Variant | self-cleavage kobs at 2500 uM GlcN6P [s⁻¹]
156 | A33G U46G C70U | < 1e-05
157 | G37U G66U C68G C71G | 4.28e-05 ± 2e-05
158 | U31G C34G A64G C67G | < 1e-05
159 | G37U A39G C68G | < 1e-05
160 | A64C G66A | 4.39e-05 ± 1.4e-05
161 | G29A U65G | 0.000664 ± 0.00023
162 | G41U U47G U49A G66C C71U | < 1e-05
163 | A15G G41U U56G C71G | 8.85e-05 ± 2e-05
164 | A14U U30A C71G | 5.1e-05 ± 1.2e-05
165 | C8G A64U C70U | < 1e-05
166 | C10G A42G G43A | < 1e-05
167 | A33U G35U G51C A64U | < 1e-05
168 | G7A A42U | < 1e-05
